{
  "source": "FireProtDB (doi:10.1021/bi9909041)",
  "proteins": {"B1": {"name": "Tryptophan synthase alpha chain wild type, P0A877 (protein)", "chain": "MERYESLFAQLKERKEGAFVPFVTLGDPGIEQSLKIIDTLIEAGADALELGIPFSDPLADGPTIQNATLRAFAAGVTPAQCFEMLALIRQKHPTIPIGLLMYANLVFNKGIDEFYAQCEKVGVDSVLVADVPVEESAPFRQAALRHNVAPIFICPPNADDDLLRQIASYGRGYTYLLSRAGVTGAENRAALPLNHLVAKLKEYNAAPPLQGFGISAPDQVKAAIDAGAAGAISGSAIVKIIEQHINEPEKMLAALKVFVQPMKAATRS"}},
  "details": "Escherichia coli (strain K12), pH 7.8, 25 °C, Urea, Potassium phosphate 10 mM, transition: 2, whole UniProt chain shown",
  "note": "“And” between values parts separate entries of the source, which are not always exact repeats. Identical values can stand only once.",
  "data": [
    {"protein": "B1", "values": [
      {"measurement": "denaturant m value", "setting": "Absorbance", "value": 1.12, "unit": "kcal/mol/M"},
      {"measurement": "denaturant midpoint (higher = more stable)", "setting": "Absorbance", "value": 3.73, "unit": "M"},
      {"measurement": "unfolding free energy", "setting": "Absorbance", "value": 4.16, "unit": "kcal/mol"},
      {"measurement": "denaturant m value", "setting": "CD", "value": "1.11 kcal/mol/M and 1.09 kcal/mol/M"},
      {"measurement": "denaturant midpoint (higher = more stable)", "setting": "CD", "value": "3.67 M and 3.65 M"},
      {"measurement": "unfolding free energy", "setting": "CD", "value": "4.08 kcal/mol and 3.96 kcal/mol"},
      {"measurement": "denaturant m value", "setting": "Fluorescence", "value": 1.09, "unit": "kcal/mol/M"},
      {"measurement": "denaturant midpoint (higher = more stable)", "setting": "Fluorescence", "value": 3.81, "unit": "M"},
      {"measurement": "unfolding free energy", "setting": "Fluorescence", "value": 4.14, "unit": "kcal/mol"}
    ]}
  ]
}
